Experimental findings from patent US20150284450A1, “COMBINATION THERAPIES USING ANTI-PSEUDOMONAS PSL AND PCRV BINDING MOLECULES” (priority 2012, published 2015) are described below.

In assay [1] the test system is P. aeruginosa 6077 (exoU+). The experiment in a line: Rabbit red blood cell lysis inhibition assay with strain 6077. To be noted: strain 6077; FIG. 12D-E. The assay is classed as cell-based, Pseudomonas aeruginosa. Here is the method: Percent inhibition of cytotoxicity analysis was analysed for the parental V2L2 mAb, mAb166 (positive control) and R347 (negative control), where the antibodies were administered to cultured broncho-epithelial cell line A549 combined with log-phase P. aeruginosa strain 6077 (exoU+) at a MOI of approximately 10. A549 lysis was assayed by measuring released lactate dehydrogenase (LDH) activity and lysis in the presence of mAbs was compared to wells without mAb to determine percent inhibition. The V2L2 mAb, mAb166 (positive control) and R347 (negative control) were evaluated for their ability to prevent lysis of RBCs, where the antibodies were mixed with log-phase P. aeruginosa 6077 (exoU^+) and washed rabbit red blood cells (RBCs) and incubated for 2 hours at 37°. Intact RBCs were pelleted and the extent of lysis determined by measuring the OD405 of the cell-free supernatant. Lysis in the presence of anti-PcrV mAbs was compared to wells without mAb to determine percent inhibition.

A further assay concerns the target rPcrV protein. The experiment in a line: Binding kinetics on Bio-Rad ProteOn XPR36. Also noted: species or system Pseudomonas aeruginosa. To be noted: antibody captured, rPcrV injected; FIG. 12G-H. Here is the method: Binding kinetics of V2L2-GL and V2L2-MD were measured using a Bio-Rad ProteOn™ XPR36 instrument. Antibodies were captured on a GLC bisensor chip using anti-human IgG reagents. rPcrV protein was injected at multiple concentrations and the dissociation phase followed for 600 seconds. Data was captured and analyzed using ProteOn Manager software. […] The clone V2L2-MD had increased Kd by 2-3 folds over V2L2-GL.

In assay [2] the test system is P. aeruginosa 6077 (O11-cytotoxic). The experiment in a line: Corneal infection (keratitis) model in mice, strain 6077. To be noted: antibody 24 h prior to 6077 (2×10^6 CFU); FIG. 8A-D, F-G. It is filed as in vivo, Pseudomonas aeruginosa. Here is the method: (§1) Antibodies or PBS were administered 24 hours before infection in each model. P. aeruginosa acute pneumonia, keratitis, and thermal injury infection models were performed as described (DiGiandomenico, A., et al., Proc Natl Acad Sci USA 104, 4624-4629 (2007)), with modifications. In the acute pneumonia model, BALB/c mice (The Jackson Laboratory) were infected with P. aeruginosa strains suspended in a 0.05 ml inoculum. In the thermal injury model, CF-1 mice (Charles River) received a 10% total body surface area burn with a metal brand heated to 92° C. for 10 seconds. Animals were infected subcutaneously with P. aeruginosa strain 6077 at the indicated dose. For organ burden experiments, acute pneumonia was induced in mice followed by harvesting of lungs, spleens, and kidneys 24 hours post-infection for determination of CFU.
Cam-003 and WapR-004 efficacy was next evaluated in a P. aeruginosa corneal infection model which emphasizes the pathogens ability to attach and colonize damaged tissue. […] FIG. 8 (H): The activity of anti-Psl and anti-PcrV monoclonal antibodies V2L2 was tested in a P. aeruginosa mouse ocular keratitis model. C3H/HeN mice were injected intraperitoneally (IP) with PBS or a control IgG1 antibody (R347) at 45 mg/kg or WapR-004 (α-Psl) at 5 mg/kg or V2L2 (α-PcrV) at 5 mg/kg, 16 hours prior to infection with 6077 (O11-cytotoxic−1×10^6 CFU) Immediately before infection, mice were anesthetized followed by initiation of three 1 mm scratches on the cornea and superficial stroma of one eye of each mouse using a 27-gauge needle under a dissection microscope, followed by topical application of P. aeruginosa 6077 strain in a 5 μl inoculum. Eyes were photographed at 48 hours post infection followed by corneal grading by visualization of eyes under a dissection microscope. Grading of corneal infection was performed as previously described by Preston et al. (Preston, M J., 1995, Infect. Immun. 63:3497). Briefly, infected eyes were graded 48 h after infection with strain 6077 by an investigator who was unaware of the animal treatments. The following grading scheme was used: grade 0, eye macroscopically identical to an uninfected eye; grade 1, faint opacity partially covering the pupil; grade 2, dense opacity covering the pupil; grade 3, dense opacity covering the entire pupil; grade 4, perforation of the cornea (shrinkage of the eyeball).

Assay [3] concerns P. aeruginosa PAO1.lux attachment to A549 cells. The experiment in a line: Cell attachment assay, PAO1.lux on A549 cells. It is filed as cell-based, Pseudomonas aeruginosa. To be noted: MOI 10, FIG. 4. Here is the method:
Anti-Psl antibodies were added to a confluent monolayer of A549 cells (an adenocarcinoma human alveolar basal epithelial cell line) grown in opaque 96-well plates (Nunc Nunclon Delta). Log-phase luminescent P. aeruginosa PAO1 strain (PAO1.lux) was added at an MOI of 10. After incubation of PAO1.lux with A549 cells at 37° C. for 1 hour, the A549 cells were washed, followed by addition of LB+0.5% glucose. Bacteria were quantified following a brief incubation at 37° C. as performed in the OPK assay described in Example 2. Measurements from wells without A549 cells were used to correct for non-specific binding.

Assay [4] relates to P. aeruginosa serogroup 011 strain (9882-80.lux). The experiment in a line: OPK assay with luminescent 9882-80.lux. The assay is classed as cell-based, Pseudomonas aeruginosa. To be noted: FIG. 2B. Here is the method:
(§2) This example describes the evaluation of prioritized human IgG1 antibodies to promote OPK of P. aeruginosa. […] OPK assays were performed as described in (DiGiandomenico, A., et al., Infect Immun 72, 7012-7021 (2004)), with modifications. Briefly, assays were performed in 96-well plates using 0.025 ml of each OPK component; P. aeruginosa strains; diluted baby rabbit serum; differentiated HL-60 cells; and monoclonal antibody. In some OPK assays, luminescent P. aeruginosa strains, which were constructed as described (Choi, K. H., et al., Nat Methods 2, 443-448 (2005))., were used. Luminescent OPK assays were performed as described above but with determination of relative luciferase units (RLUs) using a Perkin Elmer ENVISION Multilabel plate reader (Perkin Elmer).
The ability of the WapR-004 and Cam-003 antibodies to mediate OPK activity against another clinically relevant O-antigen serotype strain, 9882-80.lux, was evaluated.

In assay [5] the test system is P. aeruginosa serogroup 05 strain (PAO1.lux). The experiment in a line: Opsonophagocytic killing (OPK) assay with luminescent PAO1.lux, HL-60 cells and baby rabbit serum. The assay is classed as cell-based, Pseudomonas aeruginosa. Particulars: FIG. 2A. Here is the method:
as §2

The next assay deals with P. aeruginosa 6294 (O6). The experiment in a line: Acute pneumonia model in mice, strain 6294. It is filed as in vivo, Pseudomonas aeruginosa. To be noted: for Overall Impression, lung histology: BALB/c mice. Here is the method: as §1
Assay [6] concerns P. aeruginosa 6206 (O11-ExoU+). The experiment in a line: Acute pneumonia model in mice, strain 6206. The assay is classed as in vivo, Pseudomonas aeruginosa. Here is the method: as §1
In assay [7] the test system is P. aeruginosa 6077 (O11, cytotoxic). The experiment in a line: Acute pneumonia model in mice, strain 6077. It is filed as in vivo, Pseudomonas aeruginosa. Particulars: WapR-004 5 and 1 mg/kg; 6077 (O11) 8×10^5 or 6×10^5 CFU; FIG. 6E-F. Here is the method:
as §1

[8] abbreviates: 1.33×10^7 CFU 6294, 0.2 mg/kg (combination 0.1 mg/kg ea), Table 6A.
The mark [9] stands for this setting: 1.7×10^7 CFU 6294, 0.2 mg/kg (combination 0.1 mg/kg ea), Table 6B.
Where [10] appears, read: 5.25×10^5 cfu 6206, single antibody: R347 2.1 mg/kg, V2L2 0.1 mg/kg, WapR-004 0.5 mg/kg, Table 5.
Where [11] appears, read: 9.25×10^5 CFU 6206, 0.2 mg/kg (combination 0.1 mg/kg ea), Table 7.

B1: V2L2-MD: optimized V2L2-GL mAb; germlined lead optimized anti-PcrV antibody used in Bs4-GLO (antibody, V domains shown)
VH: EMQLLESGGGLVQPGGSLRLSCAASGFTFSSYAMNWVRQAPGEGLEWVSAITISGITAYYTDSVKGRFTISRDNSKNTLYLQMNSLRAGDTAVYYCAKEEFLPGTHYYYGMDVWGQGTTVTVSS
VL: AIQMTQSPSSLSASVGDRVTITCRASQGIRNDLGWYQQKPGKAPKLVIYSASTLQSGVPSRFSGSGSGTDFTLSISSLQPDDFATYYCLQDYNYPWTFGQGTKVEIK
modifications: V2L2-MD VH; V2L2-MD and V2L2-GL VL
In the case of B1, in assay [1], the “prevention of RBC lysis” value is “demonstrated prevention of RBC lysis”. In addition, the “Kd increased over V2L2-GL” value at rPcrV protein is recorded as 2-3 folds.

B2: WapR-004: anti-Psl human IgG1 monoclonal antibody; VH SEQ ID NO: 11, VL SEQ ID NO: 12 (antibody, V domains shown)
VH: EVQLLESGPGLVKPSETLSLTCNVAGGSISPYYWTWIRQPPGKGLELIGYIHSSGYTDYNPSLKSRVTISGDTSKKQFSLHVSSVTAADTAVYFCARGDWDLLHALDIWGQGTLVTVSS
VL: EIVLTQSPSSLSTSVGDRVTITCRASQSIRSHLNWYQQKPGKAPKLLIYGASNLQSGVPSRFSGSGSGTDFTLTISSLQPEDFATYYCQQSYSFPLTFGGGTKLEIK
modifications: WapR-004 VH; WapR-004 & WarR-004RAD VL
On to B2, for which the “bacterial counts in total eye homogenates compared to negative control” value in [2] is “reduced bacterial counts in total eye homogenates”. Moreover, in [2], the “corneal pathology compared to negative control-treated animals” value is listed as “significantly less pathology”. Moreover, the “reduction of P. aeruginosa cell attachment to A549 cells compared to the negative control (up to)” value in assay [3] is recorded as about 80%. Also, in assay [4], the “OPK activity against strain 9882-80 (O11)” value is “extends to strain 9882-80 (O11)”. Also, the “OPK activity, in words” value in assay [5] is reported as “superior OPK activity”. Besides, the “Hemorrhage, extent in words” value in the assay on P. aeruginosa 6294 (O6) (setting [8]) was “Extensive”. In addition, the “Inflammatory Infiltrate” value in the assay on P. aeruginosa 6294 (O6) (setting [8]) is reported as “PMN 3+”; in the assay with P. aeruginosa 6294 (O6) (setting [9]) it was “PMN 2+”; in assay [6] (setting [10]) it was “PMN 2-3+”; in assay [6] (setting [11]), “PMN 1-2+”. In addition, the “Involved Lung Surface Area” value in the assay with P. aeruginosa 6294 (O6) (setting [8]) was found to be 57%; in the assay on P. aeruginosa 6294 (O6) (1.7×10^7 CFU 6294, 0.2 mg/kg, Table 6B) it was 40%; in [6] (setting [10]), 50%; in assay [6] (setting [11]), 36%. The results for the Bacteria entry (with P. aeruginosa 6294 (O6) (setting [9]); in [6] (setting [11])) were “Neg-2+” and “Neg-1+”, respectively. Also, the “organ burden after induction of acute pneumonia” value was “reduced organ burden” with P. aeruginosa 6294 (O6) (6294 (~1×10^7 CFU), 15, 5, 1 mg/kg, FIG. 7E) and “reduced organ burden” in assay [6] (6206 (~1×10^6 CFU), 15, 5, 1 mg/kg, FIG. 7F). Further, the “Overall Impression, lung histology” value is on record as “Broncho interstitial pneumonia” in the assay on P. aeruginosa 6294 (O6) (setting [8]); “Broncho interstitial pneumonia” in the assay with P. aeruginosa 6294 (O6) (setting [9]); “Broncho interstitial pneumonia” in assay [6] (setting [10]); “Broncho interstitial pneumonia” in [6] (BALB/c mice, 9.25×10^5 CFU 6206, 0.2 mg/kg (combination 0.1 mg/kg ea), Table 7). For the same molecule, the “organ burden / tissue clearance (lung, spleen, kidney CFU)” value in assay [6] (5.25×10^5 cfu 6206, V2L2 0.1 mg/kg, W4-RAD 0.5 mg/kg, combination, 24 h post infection, FIG. 15) is given as “effective in lowering organ burden”. In addition, the survival result in assay [7] is “significant concentration-dependent survival”.
